Data reported in publication PMC4484435 (2015).

Target: transforming growth factor beta 1 (UniProt P01137 279-390)
Test: SPR

transforming growth factor beta 1, sequence (P01137 279-390): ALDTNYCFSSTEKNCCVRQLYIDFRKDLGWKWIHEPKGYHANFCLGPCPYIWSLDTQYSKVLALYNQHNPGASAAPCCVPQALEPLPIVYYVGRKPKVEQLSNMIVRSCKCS

koff: 0.0589 s⁻¹
B1: Leucine-rich α2-glycoprotein (natural protein)
chain: LKECLILQSAEGSTVSCHGPTEFPSSLPADTVHLSVEFSNLTQLPAAALQGCPGLRELHLSSNRLQALSPELLAPVPRLRALDLTRNALRSLPPGLFSTSANLSTLVLRENQLREVSAQWLQGLDALGHLDLAENQLSSLPSGLLASLGALHTLDLGYNLLESLPEGLLRGPRRLQRLHLEGNRLQRLEDSLLAPQPFLRVLFLNDNQLVGVATGSFQGLQHLDMLDLSNNSLSSTPPGLWAFLGRPTRDMQDGFDISHNPWICDKNLADLCRWLVANRNKMFSQNDTRCAGPEAMKGQRLLDVAELGSL
